Reference: the Human Domainome abundance scans (Beltran et al. 2025)
± gives the uncertainty stated by the source.

B1: Transitional endoplasmic reticulum ATPase, residues 26 to 106; numbered along this chain, P55072 (parent)
chain: LIVDEAINEDNSVVSLSQPKMDELQLFRGDTVLLKGKKRREAVCIVLSDDTCSDEKIRMNRVVRNNLRVRLGDVISIQPCP

Variants of: B1
Test: abundance fitness (aPCA) (normalised: wild type 0, dead -1); higher = more abundant; growth selection in yeast, the domain comes from the species named
Settings: Homo sapiens

| Variant | abundance fitness |
| --- | --- |
| Q78N | 0.063 ± 0.48 |
| Q78T | -0.003 ± 0.077 |
| Q78F | -0.345 ± 0.12 |
| Q78Y | 0.024 ± 0.33 |
| Q78M | -0.089 ± 0.077 |
| Q78R | -0.071 ± 0.057 |
| Q78G | -0.069 ± 0.048 |
| Q78S | -0.031 ± 0.078 |
| Q78C | -0.105 ± 0.089 |
| C80H | -0.064 ± 0.14 |
| C80N | 0.141 ± 0.089 |
| C80W | -0.29 ± 0.11 |
| C80Y | -0.109 ± 0.059 |
| C80R | -0.066 ± 0.071 |
| C80M | 0.055 ± 0.2 |
| C80P | -0.048 ± 0.3 |
| C80G | 0.056 ± 0.039 |
| C80K | -0.505 ± 0.49 |
| C80D | -0.064 ± 0.072 |
| C80L | 0.022 ± 0.073 |
| C80E | -0.095 ± 0.17 |
| C80V | -0.06 ± 0.045 |

| Variant | abundance fitness |
| --- | --- |
| C80I | 0.047 ± 0.079 |
| C80T | -0.038 ± 0.091 |
| C80Q | 0.104 ± 0.3 |
| C80F | -0.067 ± 0.054 |
| P81N | 0.073 ± 0.17 |
| P81S | -0.106 ± 0.064 |
| P81D | 0.058 ± 0.12 |
| P81H | -0.261 ± 0.1 |
| P81T | -0.013 ± 0.12 |
| P81C | -0.262 ± 0.29 |
| P81L | -0.405 ± 0.21 |
| P81I | -0.174 ± 0.15 |
| P81A | -0.042 ± 0.044 |
| P81R | -0.221 ± 0.14 |
| P81Y | -0.224 ± 0.16 |
| P81G | -0.451 ± 0.22 |
| P81F | -0.195 ± 0.16 |
| P81V | -0.153 ± 0.14 |
| P79A | 0.015 ± 0.063 |
| P79K | 0.113 ± 0.12 |
| P79C | -0.099 ± 0.096 |
| P79H | -0.037 ± 0.11 |

| Variant | abundance fitness |
| --- | --- |
| P79Y | -0.208 ± 0.12 |
| P79M | -0.076 ± 0.11 |
| P79S | -0.016 ± 0.069 |
| P79D | -0.383 ± 0.15 |
| P79R | -0.106 ± 0.062 |
| P79I | -0.181 ± 0.14 |
| P79E | -0.087 ± 0.082 |
| P79T | -0.11 ± 0.088 |
| P79W | -0.304 ± 0.093 |
| P79G | -0.083 ± 0.06 |
| P79L | -0.044 ± 0.035 |
| P79F | -0.012 ± 0.088 |
| I77T | -0.672 ± 0.17 |
| I77H | -0.842 ± 0.47 |
| I77R | -0.91 ± 0.12 |
| I77G | -0.817 ± 0.093 |
| I77L | 0.013 ± 0.057 |
| I77M | -0.097 ± 0.078 |
| I77W | -0.856 ± 0.27 |
| I77K | -1.01 ± 0.38 |
| I77S | -0.914 ± 0.19 |
